Data published in US20230029835A1 (KEYMED BIOSCIENCES, published 2023).
Where a chain is given by its changes, count along the chain named. Where two headings read alike, the source gives them in different places. Blank lines part the entries; values can stand above or below the binder they belong to.

Experiments:
[1] = target: T1, human TSLP recombinant protein (human, UniProt Q969D9 29-159, biotinylated in the blocking and cell-binding assays (sites not given)); experiment: ELISA on coated human TSLP
T1 construct: also called biotinylated human TSLP protein

[2] = target: T2, Cynomolgus macaques TSLP recombinant protein (Cynomolgus macaques, UniProt Q969D9 29-159 (human entry), limits assumed, biotinylated in the blocking assays (sites not given)); experiment: ELISA on coated cynomolgus TSLP;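 as to result: Read-out was TMB colorimetric signal measured as absorbance at 450 nm after 10 min development at 37 °C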
T2 construct: also called cyTSLP; biotinylated Cynomolgus macaques TSLP protein
T2 chain: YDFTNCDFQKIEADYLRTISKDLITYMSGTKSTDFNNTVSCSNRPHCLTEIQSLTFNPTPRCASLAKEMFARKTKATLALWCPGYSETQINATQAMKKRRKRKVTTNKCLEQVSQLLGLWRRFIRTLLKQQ

[3] = target: T1, human TSLP recombinant protein; experiment: cell-based or functional assay
[4] = target: T1, human TSLP recombinant protein; experiment: competition ELISA, biotin-human TSLP to coated human TSLPR-Fc
Experimental: (§1) Human TSLPR recombinant protein was coated onto a 96-well microtiter plate at 1 μg/mL in carbonate buffer overnight at 4° C. The plate was washed three times with PBS and blocked by adding 200 μL/well of PBS containing 2% skim milk for 1 hour. […] The 96-well plate was washed three times with PBS, and 100 μL of the incubated mixture was added to each well and incubated for 1 hour at room temperature. After washing with PBST and PBS three times, respectively, 100 μL of SA-HRP was added to each well and incubated at room temperature for 30 minutes in the dark. After washing with PBST and PBS three times, respectively, 100 μL of TMB substrate was added to well for color development at 37° C. for 10 minutes, the reaction was terminated with 50 μL of 2M sulfuric acid solution per well, and the absorbance was read at a wavelength of 450 nm.

[5] = target: T2, Cynomolgus macaques TSLP recombinant …; experiment: competition ELISA, biotin-cynomolgus TSLP to coated cynomolgus TSLPR-Fc
Experimental: Cynomolgus macaques TSLPR recombinant protein was coated onto a 96-well microtiter plate at 1 g/mL in carbonate buffer overnight at 4° C. The plate was washed three times with PBS and blocked by adding 200 μL/well of PBS containing 2% skim milk for 1 hour. […] The 96-well plate was washed three times with PBS, and 100 μL of the incubated mixture was added to each well and incubated for 1 hour at room temperature. After washing with PBST and PBS three times, respectively, 100 μL of SA-HRP was added to each well and incubated at room temperature for 30 minutes in the dark. After washing with PBST and PBS three times, respectively, 100 μL of TMB substrate was added to well for color development at 37° C. for 10 minutes, the reaction was terminated with 50 μL of 2M sulfuric acid solution per well, and the absorbance was read at a wavelength of 450 nm.

[6] = target: T1, human TSLP recombinant protein; experiment: flow cytometry competition, biotin-human TSLP to Ba/F3-hTSLPR-IL7Rα cells
Experimental: Ba/F3-hTSLPR-IL7Rα cells were washed three times with PBS, centrifuged at 300 g for 3 minutes, and blocked with 3% BSA/PBS for 30 minutes. The cells were resuspended and added to a 96-well U-plate at 5×10⁴/well.

[7] = target: T1, human TSLP recombinant protein; experiment: cell-based or functional assay; remark: listed apart in the source
[8] = target: T1, human TSLP recombinant protein; experiment: ELISA on coated human TSLP; remark: listed apart in the source
Experimental: (§2) The plate was washed three times with PBS and blocked by adding 200 μL/well of PBS containing 2% skim milk for 1 hour. […] After washing with PBST and PBS three times, respectively, 100 μL of TMB substrate was added to each well for color development at 37° C. for 10 minutes, the reaction was terminated with 50 μL of 2M sulfuric acid solution per well, and the absorbance was read at a wavelength of 450 nm.

[9] = target: T2, Cynomolgus macaques TSLP recombinant …; experiment: ELISA on coated cynomolgus TSLP
Experimental: as §2

[10] = target: T1, human TSLP recombinant protein; experiment: competition ELISA, biotin-human TSLP to coated human TSLPR-Fc; remark: listed apart in the source
Experimental: as §1

[11] = target: T1, human TSLP recombinant protein; experiment: SPR BIAcore T200, antibody captured on Protein A, human TSLP injected
Experimental: After each injection cycle, the Protein A chip surface was regenerated with regeneration buffer 10 mM glycine (pH 2.0) at a flow rate of 30 μL/min.
The association rate constant (ka) and dissociation rate constant (kd) and equilibrium dissociation constant KD were analyzed by fitting the resulting data to a Langmuir 1:1 kinetics theoretical model using BIAevaluation software.

[12] = target: T2, Cynomolgus macaques TSLP recombinant …; experiment: competition ELISA, biotin-cynomolgus TSLP to coated cynomolgus TSLPR-Fc
Experimental: Cynomolgus macaques TSLPR recombinant protein was coated onto a 96-well microtiter plate at 1 μg/mL in carbonate buffer overnight at 4° C. The plate was washed three times with PBS and blocked by adding 200 μL/well of PBS containing 2% skim milk for 1 hour. […] The 96-well plate was washed three times with PBS, and 100 μL of the incubated mixture was added to each well and incubated for 1 hour at room temperature. After washing with PBST and PBS three times, respectively, 100 μL of SA-HRP was added to each well and incubated at room temperature for 30 minutes in the dark. After washing with PBST and PBS three times, respectively, 100 μL of TMB substrate was added to well for color development at 37° C. for 10 minutes, the reaction was terminated with 50 μL of 2M sulfuric acid solution per well, and the absorbance was read at a wavelength of 450 nm.

B1: Ab6 (antibody, V domains shown)
VH: QVQLVQSGAEVKKPGSSVKVSCKASGYTFTDYWMHWVRQAPGQGLEWMGTIDNSDSDTSLNQKFQGRVTLTVDTSTSTAYMELSSLRSEDTAVYYCARSLDGYYDYWGQGTLVTVSS
VL: DIQMTQSPSSLSASVGDRVTITCRASENIYSYLAWYQQKPGKAPKLLIYNARTLPEGVPSRFSGSGSGTDFTLTISSLQPEDFATYYCQHHYTTPWTFGQGTKVEIK
notes: Humanized; also called h39G5VHv6/h39G5VKv1
EC50 [1]: 2.79 nM
binding result [2]: binds

B2: Ab21 (antibody, V domains shown)
VH: B1 VH with S59T, L60Y, L70M, V72R, A79V, L100V, Y104L
VL: B1 VL with A25T, N50F, R52K, P55T, E56D, T93G
notes: Humanized; also called h71G4VHv3/h71G4VKv1
Inhibition of Cell Proliferation IC50 [3]: 178 nM
EC50 [1]: 0.28 nM
EC50 [2]: 0.54 nM
IC50 [4]: 2.18 nM
IC50 [5]: 1.08 nM
IC50 [6]: 0.36 nM

B3: Ab19 (antibody, V domains shown)
VH: QVQLVQSGAEVKKPGSSVKVSCKASGYTFTDYWMHWVRQAPGQGLEWMGTIDNSDSDTTYNPSFQGHVTISADKSISTAYLQWSSLKASDTAMYYCARSVDGYLDYWGQGTLVTVSS
VL: B1 VL with A25T, N50F, R52K, P55T, E56D, T93G
notes: Humanized; also called h71G4VHv1/h71G4VKv1
EC50 [1]: 0.27 nM
EC50 [2]: 0.65 nM
IC50 [4]: 2.74 nM
IC50 [5]: 1.76 nM
IC50 [6]: 0.45 nM

B4: Ab27 (antibody, V domains shown)
VH: B1 VH with L70I, V72A
VL: B1 VL with A25T, N50F, R52K, P55T, E56D, T93G
notes: Humanized; also called h39G5VHv11/h71G4VKv1
EC50 [1]: 1.08 nM
EC50 [2]: 4.22 nM

B5: Ab2 (antibody, V domains shown)
VH: B1 VH with T28S, T30I, D31S, M34I, T50I, N53P, L70I, V72A, T74E
VL: B1 VL
notes: Humanized; also called h39G5VHv2/h39G5VKv1
EC50 [1]: 0.21 nM
EC50 [2]: 2.53 nM
IC50 [4]: 1.49 nM
IC50 [5]: 1.1 nM

B6: Ab9 (antibody, V domains shown)
VH: EVQLVQSGAEVKKPGESLKISCKASGYTFTDYWMHWVRQMPGKGLEWMGTIDNSDSDTSLNQSFQGHVTLSVDKSSTTAYLQWSSLKASDTAMYYCARSLDGYYDYWGQGTLVTVSS
VL: B1 VL
notes: Humanized; also called h39G5VHv9/h39G5VKv1
EC50 [1]: 3.03 nM
EC50 [2]: 209 nM

B7: Ab5 (antibody, V domains shown)
VH: B1 VH with T50I, N53P
VL: B1 VL
notes: Humanized; also called h39G5VHv5/h39G5VKv1
EC50 [1]: 0.26 nM
EC50 [2]: 2.85 nM
IC50 [4]: 1.69 nM
IC50 [5]: 0.28 nM

B9: Ab8 (antibody, V domains shown)
VH: B6 VH with T50I, N53P
VL: B1 VL
notes: Humanized; also called h39G5VHv8/h39G5VKv1
EC50 [1]: 0.4 nM
EC50 [2]: 5.51 nM
IC50 [4]: 2.05 nM
IC50 [5]: 1 nM

B10: Ab15 (antibody, V domains shown)
VH: B6 VH with L70I, V72A
VL: B1 VL
notes: Humanized; also called h39G5VHv15/h39G5VKv1
EC50 [1]: 62.9 nM
binding result [2]: no binding

B16: Ab13 (antibody, V domains shown)
VH: B6 VH with T50I, N53P, L70I, V72A, S76I, T77S
VL: B1 VL
notes: Humanized; also called h39G5VHv13/h39G5VKv1
EC50 [1]: 0.66 nM
EC50 [2]: 5.68 nM
IC50 [4]: 1.1 nM
IC50 [5]: 0.55 nM

B17: Ab3 (antibody, V domains shown)
VH: B6 VH with K19R, T28S, T30I, D31S, M34I, T50I, N53P
VL: B1 VL
notes: Humanized; also called h39G5VHv3/h39G5VKv1
EC50 [1]: 0.22 nM
EC50 [2]: 2.22 nM
IC50 [4]: 1.65 nM
IC50 [5]: 0.62 nM

B19: Ab11 (antibody, V domains shown)
VH: B1 VH with L70I, V72A
VL: B1 VL
notes: Humanized; also called h39G5VHv11/h39G5VKv1
EC50 [1]: 36 nM
binding result [2]: binds

B20: Ab25 (antibody, V domains shown)
VH: B1 VH
VL: B1 VL with A25T, N50F, R52K, P55T, E56D, T93G
notes: Humanized; also called h39G5VHv6/h71G4VKv1
EC50 [1]: 0.27 nM
EC50 [2]: 1.16 nM
IC50 [4]: 1.82 nM
IC50 [5]: 0.85 nM
IC50 [6]: 0.35 nM

B22: 76A8 chimeric antibody (antibody, V domains shown)
VH: QVQLQQSGPQLVRPGASVKISCKASGYSFTSYWMHWVKQRPGQGLEWIGLIDPSDSETGLNQRFKDKATLTVDNPSSTAYMQLSSPTSEDSAVYYCARSLDGYYDYWGQGTTLTVSS
VL: DIQMIQSPASLSASVGETVTITCRASGNIHNYLAWYQQKQGKSPQLLVYNAKTLADGVPSRFSGSGSGTQYSLKINSLQPEDFGSYYCQHFWSTPWTFGGGTRLEIK
Inhibition IC50 of STAT5 reporter gene [7]: 9.78 nM
EC50 [8]: 0.26 nM
EC50 [9]: 0.47 nM
IC50 [10]: 1.42 nM
Kd [11]: 0.026 nM
koff [11]: 8.36e-05 s⁻¹
kon [11]: 3.22e+06 M⁻¹ s⁻¹
IC50 [12]: 0.73 nM

Further lines, results first:

EC50 [1]: 1.89 nM
binding result [2]: binds
B8: Ab7 (antibody, V domains shown)
VH: B1 VH with T74E, T76S
VL: B1 VL
notes: Humanized; also called h39G5VHv7/h39G5VKv1

EC50 [1]: 1.98 nM
EC50 [2]: 4.44 nM
B11: Ab17 (antibody, V domains shown)
VH: B1 VH with S59T, L60Y, L100V, Y104L
VL: B1 VL
notes: Humanized; also called h71G4VHv2/h39G5VKv1

EC50 [1]: 5.87 nM
EC50 [2]: 12.6 nM
B12: Ab16 (antibody, V domains shown)
VH: B3 VH
VL: B1 VL
notes: Humanized; also called h71G4VHv1/h39G5VKv1

EC50 [1]: 0.32 nM
EC50 [2]: 2.24 nM
IC50 [4]: 1.36 nM
IC50 [5]: 0.37 nM
B13: Ab10 (antibody, V domains shown)
VH: B1 VH with T50I, N53P, L70I, V72A
VL: B1 VL
notes: Humanized; also called h39G5VHv10/h39G5VKv1

EC50 [1]: 2.15 nM
EC50 [2]: 17.9 nM
B14: Ab18 (antibody, V domains shown)
VH: B1 VH with S59T, L60Y, L70M, V72R, A79V, L100V, Y104L
VL: B1 VL
notes: Humanized; also called h71G4VHv3/h39G5VKv1

Inhibition of Cell Proliferation IC50 [3]: 46.2 nM
EC50 [1]: 0.17 nM
EC50 [2]: 0.27 nM
IC50 [4]: 2 nM
IC50 [5]: 1.32 nM
IC50 [6]: 0.33 nM
B15: Ab20 (antibody, V domains shown)
VH: B1 VH with S59T, L60Y, L100V, Y104L
VL: B1 VL with A25T, N50F, R52K, P55T, E56D, T93G
notes: Humanized; also called h71G4VHv2/h71G4VKv1

EC50 [1]: 0.39 nM
EC50 [2]: 5.54 nM
IC50 [4]: 1.69 nM
IC50 [5]: 0.43 nM
B18: Ab4 (antibody, V domains shown)
VH: EVQLVQSGAEVKKPGESLRISCKASGYSFISYWIHWVRQMPGKGLEWMGIIDPSDSDTSLNQSFQGHVTISADKSISTAYLQWSSLKASDTAMYYCARSLDGYYDYWGQGTLVTVSS
VL: B1 VL
notes: Humanized; also called h39G5VHv4/h39G5VKv1

EC50 [1]: 0.19 nM
EC50 [2]: 2.29 nM
IC50 [4]: 1.7 nM
IC50 [5]: 1.78 nM
B21: Ab1 (antibody, V domains shown)
VH: B1 VH with T28S, T30I, D31S, M34I, T50I, N53P, T74K, T76S, S77T
VL: B1 VL
notes: Humanized; also called h39G5VHv1/h39G5VKv1

Inhibition IC50 of STAT5 reporter gene [7]: 9.61 nM
EC50 [8]: 0.58 nM
EC50 [9]: 0.73 nM
IC50 [10]: 1.35 nM
Kd [11]: 0.0204 nM
koff [11]: 8.77e-05 s⁻¹
kon [11]: 4.31e+06 M⁻¹ s⁻¹
IC50 [12]: 0.31 nM
B23: 79D6 chimeric antibody (antibody, V domains shown)
VH: QVQLQQSGAELVMPGASVKMSCKASGYTFTGYWMHWVKQRPGQGLEWIGTIDNSDSDTTYNQKFKGKVTLTVDESSSTAYMQLSSLTSEDSAVYYCARSVDGYLDYWGQGTTLTVSS
VL: DIQMIQSPASLSASVGETVTITCRASENIYSYLAWYQQIQGKSPQLLVYYAKTLPEGVPSRFSGSGSGTQFSLKINSLQPEDFGSYYCQHHYGTPWTFGGGTKLEIK
